According to patent US20130115677:
Substitutions are numbered along the chain they refer to.

Tests used:
Assay in all cases: cleavage_in_vitro
[1] = tested on: T1, AvrII-HF Y104F (Anabaena variabilis); conditions: NEB4, 37 C, Mg2+
T1 sequence: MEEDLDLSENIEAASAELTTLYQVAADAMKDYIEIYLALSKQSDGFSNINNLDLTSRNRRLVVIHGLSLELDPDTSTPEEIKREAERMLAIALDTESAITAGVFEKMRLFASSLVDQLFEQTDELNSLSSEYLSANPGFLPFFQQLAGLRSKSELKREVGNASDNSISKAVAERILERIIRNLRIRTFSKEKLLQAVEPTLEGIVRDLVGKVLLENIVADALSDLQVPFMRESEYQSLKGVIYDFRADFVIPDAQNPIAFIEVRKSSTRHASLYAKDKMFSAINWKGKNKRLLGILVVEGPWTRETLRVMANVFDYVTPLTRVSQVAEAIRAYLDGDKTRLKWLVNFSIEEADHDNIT

[2] = tested on: T2, AvrII (Anabaena variabilis); conditions: NEB4, 37 C, Mg2+
T2 sequence: T1 sequence with F104Y

[3] = biological target: T3, SalI-HF R107A (Streptomyces albus G) (UniProt Q53608); conditions: NEB4, 37 C, Mg2+
T3 sequence: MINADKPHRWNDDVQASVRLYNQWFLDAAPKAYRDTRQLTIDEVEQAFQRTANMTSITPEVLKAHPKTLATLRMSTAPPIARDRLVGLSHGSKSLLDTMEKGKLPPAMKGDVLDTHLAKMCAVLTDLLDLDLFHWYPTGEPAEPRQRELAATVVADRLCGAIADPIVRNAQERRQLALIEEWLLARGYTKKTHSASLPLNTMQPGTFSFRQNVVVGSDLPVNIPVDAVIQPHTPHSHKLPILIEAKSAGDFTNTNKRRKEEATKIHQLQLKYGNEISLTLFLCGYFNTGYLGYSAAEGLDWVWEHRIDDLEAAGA

[4] = biological target: T4, SalI (Streptomyces albus G) (UniProt Q53608); conditions: NEB4, 37 C, Mg2+
T4 sequence: T3 sequence with A107R

[5] = biological target: T5, PvuII-HF T46G (Proteus vulgaris) (UniProt P23657); conditions: NEB4, 37 C, Mg2+
T5 sequence: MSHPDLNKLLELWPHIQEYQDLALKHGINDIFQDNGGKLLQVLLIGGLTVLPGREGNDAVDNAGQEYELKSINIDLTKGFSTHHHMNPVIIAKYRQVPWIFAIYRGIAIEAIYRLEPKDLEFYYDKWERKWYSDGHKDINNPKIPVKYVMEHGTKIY

[6] = tested on: T6, BspQI-HF K279P/R388F (Bacillus sphaericus); conditions: NEB4, 50 C, Mg2+
T6 sequence: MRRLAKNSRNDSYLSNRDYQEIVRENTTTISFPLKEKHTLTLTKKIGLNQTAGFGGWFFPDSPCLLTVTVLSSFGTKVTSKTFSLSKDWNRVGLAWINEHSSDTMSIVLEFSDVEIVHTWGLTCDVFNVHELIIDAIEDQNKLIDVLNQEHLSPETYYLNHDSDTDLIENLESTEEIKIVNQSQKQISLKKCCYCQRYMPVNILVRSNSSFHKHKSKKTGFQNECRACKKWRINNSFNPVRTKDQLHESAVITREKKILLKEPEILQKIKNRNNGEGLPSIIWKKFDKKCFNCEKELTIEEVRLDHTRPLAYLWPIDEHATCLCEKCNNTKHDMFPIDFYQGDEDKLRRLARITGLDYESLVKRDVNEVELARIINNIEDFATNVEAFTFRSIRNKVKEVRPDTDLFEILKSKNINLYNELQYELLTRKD

Substance T7 DNA has an activity (fidelity index) [1] of over 1000 and an activity (fidelity index) [2] of 32.
Substance lambda DNA HindIII digest has an activity (fidelity index) [3] of over 32000 and an activity (fidelity index) [4] of 1.
For pBR322, the activity (fidelity index) [5] was 500.
In the case of pUC19, the activity (fidelity index) [6] is reported as over 4000.
